The experiment addresses Mcm2-7 hexamer (S. cerevisiae) (UniProt P29469). Briefly: cryo-EM structure.

Usually stoichiometry N stands for the number of molecules, sites or subunits per partner or assembly.

Substance “Mcm2-7 hexamer, P29469;P24279;P30665;P29496;P53091;P38132” showed a stoichiometry N of 2 hexamers.

(Values after publication PMC5692578.)
